Experimental data taken from article PMC10484922, “Discovery of a selective and biologically active low-molecular weight antagonist of human interleukin-1β” (Nature Communications, 2023).
Values joined by “and” are separate entries in the source; they are usually repeats but may differ in a detail not shown here. Identical values can stand only once. Like-named read-outs stand apart in the source and are kept apart here.

Target: T1, hIL-1R1 (Homo sapiens, UniProt P14778)
T1 construct: the cell suspension containing the mature Interleukin-1R1(21–337)-His6 was centrifuged; made in house; host or cells: HEK-ExpiGnti- cells (transient, secreted)
T1 sequence (P14778 21-337): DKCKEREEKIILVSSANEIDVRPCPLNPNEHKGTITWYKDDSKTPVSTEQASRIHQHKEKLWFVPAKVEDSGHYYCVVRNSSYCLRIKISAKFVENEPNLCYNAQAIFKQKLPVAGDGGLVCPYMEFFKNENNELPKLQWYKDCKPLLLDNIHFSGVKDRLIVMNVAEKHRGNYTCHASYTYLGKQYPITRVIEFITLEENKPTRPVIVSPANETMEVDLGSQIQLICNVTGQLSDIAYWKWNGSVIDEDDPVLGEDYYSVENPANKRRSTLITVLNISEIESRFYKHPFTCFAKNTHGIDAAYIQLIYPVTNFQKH
Assay: SPR binding of IL-1β and V47A variant to immobilized IL-1R1
Conditions: source data, read-out: SPR binding to IL-1R1, individual experiments (Exp1-3)
Description: The receptor IL-1R1 was covalently immobilized to the chip surface of a CMD50L sensor by amine coupling. The coupling reagents (EDC/NHS and ethanolamine) were from Bruker. 1× PBS pH 7.5 (Gibco 70011-036, 10×), 0.05 % Tween-20 was used as running buffer. The chip surface was activated with a 3 min injection of EDC/NHS (200 mM 1-ethyl-3-(3-dimethylaminopropyl)-carbodiimide hydrochloride, 25 mM N-hydroxysuccinimide), followed by the protein injection of 0.02 mg/ml IL-1R1 diluted in 10 mM sodium acetate pH 5.0 for 3 min at 10 μl/min. The remaining active succinimides on the surface were deactivated by an injection of 1 M ethanolamine hydrochloride pH 8.5 over 3 min at 10 μl/min.
The injection of the protein dilution series was performed with 8 concentrations in SICK mode (single injection cycle kinetic) with a flow rate of 40 μl/min and 2 reference injections with buffer before and after the protein injection.
Data analysis was performed with the Sierra Analyzer 3.4.0 software from Bruker. Signal intensities were corrected for nonspecific binding to the surface by subtracting intensities from the reference surface from those of the hIL-1β surfaces (first reference subtraction) and by subtracting the buffer injection (second reference subtraction). […]
as se ss ed by SPR. Bindi ng of hI L-1b (a, b) and hI L-1bV47A (c, d) to hI L-1R1 monitored by SPR. […]

| Substance | Kd (listed as wt IL-1beta) | Kd (listed as IL-1beta V47A) |
| --- | --- | --- |
| hIL-1β: proteolytically processed mature human interleukin-1β, analyte in SPR on IL-1R1 | 3.9 nM and 2.4 nM | – |
| hIL-1β^V47A: hIL-1β variant with Val47 replaced by Ala | – | 3.4 nM and 4.3 nM and 4 nM |
